T1: BCOR (aa 1176–1225)-FITC (UniProt Q6W2J9 1176-1225, fluorescein (printed as BCOR (aa 1176–1225)-FITC))
T1 peptide (looked up): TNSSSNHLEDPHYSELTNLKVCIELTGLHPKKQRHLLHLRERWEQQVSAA


How the values were obtained:
Test in all cases: fluorescence polarisation
BCOR (aa 1176–1225)-FITC = biological target: T1, BCOR (aa 1176–1225)-FITC
[1] = biological target: fluorescein-labeled CBX8 peptide (FITC-CBX8) (fluorescein (printed as FITC-CBX8))
MBP-AF9 = biological target: MBP-AF9
MBP-AF9, sequence (P42568 whole entry, the tested form may be a part): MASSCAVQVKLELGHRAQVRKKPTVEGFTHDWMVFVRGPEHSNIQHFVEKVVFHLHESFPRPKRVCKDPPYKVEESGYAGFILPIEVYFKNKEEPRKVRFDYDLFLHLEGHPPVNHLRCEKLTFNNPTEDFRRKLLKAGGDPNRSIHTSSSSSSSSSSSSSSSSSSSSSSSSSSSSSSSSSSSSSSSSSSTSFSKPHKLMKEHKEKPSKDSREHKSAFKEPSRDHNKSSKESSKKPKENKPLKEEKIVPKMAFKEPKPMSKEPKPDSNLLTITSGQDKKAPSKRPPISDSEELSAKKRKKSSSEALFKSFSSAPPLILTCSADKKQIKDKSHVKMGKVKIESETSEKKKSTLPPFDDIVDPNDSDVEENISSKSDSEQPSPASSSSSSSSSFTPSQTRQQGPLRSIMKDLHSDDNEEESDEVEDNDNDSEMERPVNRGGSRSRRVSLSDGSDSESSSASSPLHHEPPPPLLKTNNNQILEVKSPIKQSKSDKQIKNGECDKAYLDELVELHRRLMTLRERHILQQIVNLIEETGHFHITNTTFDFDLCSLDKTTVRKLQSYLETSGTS

fold tighter binding to MBP-ENL than to MBP-AF9 (BCOR (aa 1176–1225)-FITC)	Kd [1]	IC50 (MBP-AF9)	Binder
9 fold	112 ± 13 nM		MBP-ENL (domain or fragment) YTDELVELHRRLMALRERNVLQQIVNLIEETGHFNVTNTTFDFDLFSLDETTVRKLQSCLE
		1880 ± 202 nM	AQGGRPSLIARIPVARILGDPEEE [unlabeled CBX8 WT peptide]
